Publication PMC7330524, “Genome-Wide Analysis of Serine Carboxypeptidase-Like Acyltransferase Gene Family for Evolution and Characterization of Enzymes Involved in the Biosynthesis of Galloylated Catechins in the Tea Plant (Camellia sinensis)” (Frontiers in Plant Science, 2020)

B1: CsSCPL13-IA (Camellia sinensis var. sinensis) (protein)
chain: MVQVEAIAASQKQLLQKPSCAWIRWVQNHLLLQLLLAQPVLGGQIVKYLPGFDGELPFKLETGQLKSDDGFVVDFDRYISVDDSELFYYFIESEGNPQEDPLFLWLTGGPGCTSFSGLLYEVGPMEYDIDNYTGGLPKLKYYPYARTKTASMIFLDAPVGTGFSYARTPGGWPTSDTKSAEQSYQFLRKWLVEHPQFLSVQLFVGGDSYAGLAVPLITKKIIDGNKEKAEPYMNIKGYLVGCPGTDSVIDGNSRVDFAHRMALISDEIYENAKRSCNENYINVDPANTACITAMGAVQKCLEDLSDKDILKPKCDLSSQDHPEGPDRRFLKEGSSEFLLSPSTFPKSWCTTLKLTHNSIWANDDGVQEALHVRKGTVPRWERCNNSLSYTKDVSSVIAVHKELSRSSLEVLVESGDHDISVPYMGTLKWIKSLNLTLVDDWRPWFVDNQVAGYTMKYSEEHGYHLTFATIKGAGHPAPEYYRRECYCLFDRWINYNPV
notes: full length, His-tag (pDEST17); E. coli; nickel resin, partially purified; 498 residues, 56 kD
B2: CsSCPL14-IA (Camellia sinensis var. sinensis) (protein)
chain: SVDDSELFYYFIESEGNPQEDPLFLWLTGGPGCTSFSGLLYEVGPMEYDIDNYTGGLPKLKYYPYARTKTASMIFLDAPVGTGFSYARTPGGWPTSDTKSAEQSYQFLRKWLVEHPQFLSVQLFVGGDSYAGLTVPLITKKIIDGNKEKAKPYMNIKGYLVGCPGTDSVIDGNSRVDFAHRMALISDEIYENAKRSCNENYINVDPANTACITAMGAIQKCLKDLSDKDILKPKCDLSSQDHPEGPDRRFLKEGSSEFLLSPSTFPKPWCTTLKLTHNSIWANDDGVQEALHVRKGTVPRWERCNNSLSYTQDVLSVIAVHKELSRSSLEVLVERFFIFFLLLPAANRPSLPSRPPDNLTHHS
notes: N-terminal 50 residues (transmembrane region) deleted, Met inserted; His-tag (pDEST17); E. coli; nickel resin, partially purified; full protein 413 residues, 46 kD
B3: CsSCPL11-IA (Camellia sinensis var. sinensis) (protein)
chain: ELPFKLETGYALIYIRVNESELFYYFIESQGNPQEDPIFLWLPGGPGCSSFHELVYGFGMVKILIVKTASIIFLDAPVGTGFSYSRTADGWPTSDSKSAEQSYQFLREWFDEHPQYLAVQLFVGKGNKDGVKPFMNLKGYLLGSPRTDSVIDENSKVVFAHRMALISDEIYENAKTGCNDTYVSIDPANTACIVALGNIKTCIKDLFRNDILEPKCVFATPDPGEEPAARRSLEEGPSDFLLSPPMIPNLWCRNFNYVLSYIWSNDDTVQEVLHVRKGSVLNWERCNKSLSYTKDILTVVPVHEELKELGLEVLVETGDRDMVVPFVGTVKWIKSLNLTVVNDWRPWFVDGQVAGYTIKYSEHGYRLTYATVKGAGHTAPEYYRMECYYMFDRWIHYYPI
notes: N-terminal 50 residues (transmembrane region) deleted, Met inserted; His-tag (pDEST17); E. coli; nickel resin, partially purified; full protein 450 residues, 51 kD

How the values were obtained:
purified protein = substrate: Oc1cc(O)c2c(c1)O[C@H](c1cc(O)c(O)c(O)c1)[C@H](O)C2; experiment: purified protein; settings: 0.4 mM PGG as donor, potassium phosphate pH 6.0, 30 °C
[1] = substrate: O=C(OC[C@H]1O[C@@H](OC(=O)c2cc(O)c(O)c(O)c2)[C@H](OC(=O)c2cc(O)c(O)c(O)c2)[C@@H](OC(=O)c2cc(O)c(O)c(O)c2)[C@@H]1OC(=O)c1cc(O)c(O)c(O)c1)c1cc(O)c(O)c(O)c1; experiment: HPLC galloyltransferase assay, Lineweaver-Burk; format: biochemical, Camellia sinensis; settings: 1.0 mM EGC as acceptor, potassium phosphate pH 6.0, 30 °C
[2] = substrate: Oc1cc(O)c2c(c1)O[C@H](c1ccc(O)c(O)c1)[C@H](O)C2; experiment: HPLC galloyltransferase assay, Lineweaver-Burk; format: biochemical, Camellia sinensis; settings: 0.4 mM PGG as donor, potassium phosphate pH 6.0, 30 °C

| Protein | Km (purified protein) [µM] | Vmax (purified protein) [µmol/min/mg] | kcat (purified protein) [s⁻¹] | kcat/Km (purified protein) [M⁻¹ s⁻¹] | Km [1] [µM] | Vmax [1] [µmol/min/mg] | kcat [1] [s⁻¹] | kcat/Km [1] [M⁻¹ s⁻¹] | Km [2] [µM] | Vmax [2] [µmol/min/mg] | kcat [2] [s⁻¹] | kcat/Km [2] [M⁻¹ s⁻¹] |
| --- | --- | --- | --- | --- | --- | --- | --- | --- | --- | --- | --- | --- |
| B1 | 49.73 ± 8.36 | 20.4 | 340 | 6.84e+06 | 10.43 ± 1.25 | 3.67 | 61 ± 8.82 | 5.85e+06 ± 840000 | 160.41 ± 21.2 | 37 | 617 ± 62.5 | 3.85e+06 ± 420000 |
| B2 | 103.38 ± 15.63 | 62.5 | 1040 | 1.01e+07 | 20.81 ± 3.51 | 10.6 | 177 ± 22.8 | 8.52e+06 ± 1.38e+06 | 64.28 ± 0.81 | 20 | 333 ± 35.2 | 5.19e+06 ± 480000 |
| B3 | 40.67 ± 5.56 | 13.2 | 219 | 5.39e+06 | 13.34 ± 1.78 | 4.05 | 67.5 ± 7.34 | 5.06e+06 ± 970000 | 85.39 ± 10.62 | 16.1 | 269 ± 22.8 | 3.14e+06 ± 640000 |
